Data published in publication PMC5638340.

How the values were obtained:
[1] = molecular target: Acetylcholine binding protein (AChBP) from Lymnaea stagnalis (L. stagnalis) (UniProt P58154); assay: radioligand binding
[2] = molecular target: Muscle-type nAChR of Torpedo californica electric organ (Torpedo californica); assay: radioligand binding
[3] = molecular target: Human α7 nAChR expressed in GH4C1 cells (human) (UniProt P36544); assay: radioligand binding
[4] = molecular target: Acetylcholine binding protein (AChBP) from Lymnaea stagnalis (L. stagnalis) (UniProt P58154); assay: SPR

Acetylcholine binding protein (AChBP) from Lymnaea stagnalis (L. stagnalis), sequence (P58154 20-229): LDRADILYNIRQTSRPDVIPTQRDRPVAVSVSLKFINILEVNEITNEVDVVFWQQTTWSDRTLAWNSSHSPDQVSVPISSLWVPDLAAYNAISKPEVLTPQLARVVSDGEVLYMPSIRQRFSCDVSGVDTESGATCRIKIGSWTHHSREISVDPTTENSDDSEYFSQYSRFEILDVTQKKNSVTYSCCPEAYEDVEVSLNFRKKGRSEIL
Muscle-type nAChR of Torpedo californica electric organ (Torpedo californica), sequence (P02710 25-461, chain 1 of 4): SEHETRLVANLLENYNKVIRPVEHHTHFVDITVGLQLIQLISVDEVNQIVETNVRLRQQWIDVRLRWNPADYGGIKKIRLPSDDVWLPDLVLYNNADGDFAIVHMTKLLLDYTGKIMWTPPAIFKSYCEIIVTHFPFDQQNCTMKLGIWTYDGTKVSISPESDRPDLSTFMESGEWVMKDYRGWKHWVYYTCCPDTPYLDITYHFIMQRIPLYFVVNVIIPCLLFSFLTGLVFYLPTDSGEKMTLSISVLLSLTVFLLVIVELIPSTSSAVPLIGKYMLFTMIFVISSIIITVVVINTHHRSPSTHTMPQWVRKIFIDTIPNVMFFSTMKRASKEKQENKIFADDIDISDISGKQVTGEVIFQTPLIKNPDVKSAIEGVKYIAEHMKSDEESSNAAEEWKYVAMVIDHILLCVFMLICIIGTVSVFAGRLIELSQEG
Muscle-type nAChR of Torpedo californica electric organ (Torpedo californica), sequence (P02712 25-493, chain 2 of 4, further chain): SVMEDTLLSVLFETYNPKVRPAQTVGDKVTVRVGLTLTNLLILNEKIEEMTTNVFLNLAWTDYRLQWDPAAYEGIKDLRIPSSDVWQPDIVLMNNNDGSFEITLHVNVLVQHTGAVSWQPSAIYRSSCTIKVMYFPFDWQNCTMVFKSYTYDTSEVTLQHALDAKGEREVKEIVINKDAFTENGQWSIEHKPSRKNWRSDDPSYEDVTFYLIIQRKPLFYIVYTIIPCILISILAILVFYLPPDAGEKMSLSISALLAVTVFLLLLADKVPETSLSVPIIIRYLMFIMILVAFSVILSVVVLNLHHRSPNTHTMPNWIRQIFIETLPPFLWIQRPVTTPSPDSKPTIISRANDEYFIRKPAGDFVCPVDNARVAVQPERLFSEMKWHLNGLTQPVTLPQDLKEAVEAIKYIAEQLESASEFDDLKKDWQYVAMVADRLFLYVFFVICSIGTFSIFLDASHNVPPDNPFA
Muscle-type nAChR of Torpedo californica electric organ (Torpedo californica), sequence (P02714 18-506, chain 3 of 4, further chain): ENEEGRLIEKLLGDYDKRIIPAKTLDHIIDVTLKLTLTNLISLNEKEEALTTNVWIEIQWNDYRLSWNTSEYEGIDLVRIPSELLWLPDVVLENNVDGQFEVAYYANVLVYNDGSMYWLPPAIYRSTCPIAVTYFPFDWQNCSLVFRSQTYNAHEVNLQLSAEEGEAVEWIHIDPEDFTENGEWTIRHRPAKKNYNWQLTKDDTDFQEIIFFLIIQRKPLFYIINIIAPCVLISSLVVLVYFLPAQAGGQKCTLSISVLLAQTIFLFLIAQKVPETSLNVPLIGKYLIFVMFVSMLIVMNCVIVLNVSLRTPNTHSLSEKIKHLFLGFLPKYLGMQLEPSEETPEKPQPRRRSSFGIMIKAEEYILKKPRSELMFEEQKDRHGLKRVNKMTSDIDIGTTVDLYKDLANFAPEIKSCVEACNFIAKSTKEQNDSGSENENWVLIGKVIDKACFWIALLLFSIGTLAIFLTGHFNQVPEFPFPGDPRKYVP
Muscle-type nAChR of Torpedo californica electric organ (Torpedo californica), sequence (P02718 22-522, chain 4 of 4, further chain): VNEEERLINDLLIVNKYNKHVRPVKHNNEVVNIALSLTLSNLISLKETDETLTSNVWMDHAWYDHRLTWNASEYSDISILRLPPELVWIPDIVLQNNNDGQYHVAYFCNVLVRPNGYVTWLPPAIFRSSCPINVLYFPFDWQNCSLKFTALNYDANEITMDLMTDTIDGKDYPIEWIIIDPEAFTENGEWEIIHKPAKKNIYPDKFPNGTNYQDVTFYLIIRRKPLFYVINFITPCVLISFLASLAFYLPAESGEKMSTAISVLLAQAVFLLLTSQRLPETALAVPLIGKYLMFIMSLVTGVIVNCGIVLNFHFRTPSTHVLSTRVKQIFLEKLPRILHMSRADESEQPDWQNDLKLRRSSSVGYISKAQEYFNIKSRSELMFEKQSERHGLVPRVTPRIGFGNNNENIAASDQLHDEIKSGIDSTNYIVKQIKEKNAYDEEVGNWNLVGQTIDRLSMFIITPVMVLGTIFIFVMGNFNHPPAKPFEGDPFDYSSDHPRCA
Human α7 nAChR expressed in GH4C1 cells (human), sequence (P36544 23-502): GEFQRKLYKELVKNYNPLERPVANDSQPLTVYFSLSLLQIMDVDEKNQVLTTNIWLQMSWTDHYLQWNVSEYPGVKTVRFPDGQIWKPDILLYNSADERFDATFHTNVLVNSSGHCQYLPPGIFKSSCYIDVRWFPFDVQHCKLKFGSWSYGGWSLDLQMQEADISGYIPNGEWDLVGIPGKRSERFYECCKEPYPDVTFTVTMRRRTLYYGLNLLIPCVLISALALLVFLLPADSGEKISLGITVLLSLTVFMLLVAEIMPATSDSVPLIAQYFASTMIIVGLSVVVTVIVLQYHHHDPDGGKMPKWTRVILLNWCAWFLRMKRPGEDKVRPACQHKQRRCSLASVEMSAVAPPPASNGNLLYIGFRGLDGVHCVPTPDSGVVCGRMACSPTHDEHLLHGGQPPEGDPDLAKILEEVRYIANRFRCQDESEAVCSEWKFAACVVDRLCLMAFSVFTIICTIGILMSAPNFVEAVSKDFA

For “Crotoxin from Crotalus durissus terrificus venom (complex)”, which IC50 [1] is on record?
Its IC50 is 640 nM.

What about the IC50, high affinity site (two-site model) [2] of the same substance?
Its IC50, high affinity site (two-site model) is 30 nM.

And the IC50, low affinity site (two-site model) [2]?
Its IC50, low affinity site (two-site model) is 260 nM.

And the IC50, high affinity site (two-site model) [3]?
Its IC50, high affinity site (two-site model) is 4.9 nM.

And the IC50, low affinity site (two-site model) [3]?
The IC50, low affinity site (two-site model) was 15000 nM.

What about the Kd [4] of the same substance?
Its Kd is 120 nM.
